Numbering of substitutions follows the chain as printed.
T1: FcgRIIb (human, UniProt P31994 43-217)
T1 construct: extracellular domain; also called FcγRIIb
T1 sequence (looked up): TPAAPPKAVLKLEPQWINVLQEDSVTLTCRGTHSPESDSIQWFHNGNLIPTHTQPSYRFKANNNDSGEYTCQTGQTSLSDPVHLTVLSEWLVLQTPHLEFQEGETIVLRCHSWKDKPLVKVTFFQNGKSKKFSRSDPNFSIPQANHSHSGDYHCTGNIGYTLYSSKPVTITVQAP

T2: FcgRIIaR (human, UniProt P12318 34-217)
T2 construct: extracellular domain; also called FcγRIIa R type; FcγRIIa (R type)
T2 sequence (looked up): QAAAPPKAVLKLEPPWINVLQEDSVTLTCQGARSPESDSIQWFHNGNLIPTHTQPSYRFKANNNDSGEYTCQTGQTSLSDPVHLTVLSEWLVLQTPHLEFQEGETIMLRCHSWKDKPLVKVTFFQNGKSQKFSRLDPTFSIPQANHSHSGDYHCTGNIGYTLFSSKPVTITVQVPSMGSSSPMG

T3: FcγRIIb extracellular domain with C-terminal His tag (human, UniProt P31994 43-217)
T3 construct: extracellular domain; also called FcgRIIb; not shown: His tag at the C terminus
T3 sequence (looked up): T1 sequence (looked up)

T4: FcγRIIa R type extracellular domain with C-terminal His tag (human, UniProt P12318 34-217)
T4 construct: extracellular domain; also called FcgRIIaR; not shown: His tag at the C terminus
T4 sequence (looked up): T2 sequence (looked up)

B1: IL6R-P697/IL6R-L (antibody, human IgG1, kappa)
heavy: QVQLQESGPGLVKPSETLSLTCAVSGHSISHDHAWSWVRQPPGEGLEWIGFISYSGITNYNPSLQGRVTISRDNSKNTLYLQMNSLRAEDTAVYYCARSLARTTAMDYWGEGTLVTVSSASTKGPSVFPLAPSSKSTSGGTAALGCLVKDYFPEPVTVSWNSGALTSGVHTFPAVLQSSGLYSLSSVVTVPSSSLGTQTYICNVNHKPSNTKVDKKVEPKSCDKTHTCPPCPAPDLLGKDSVFLFPPKPKDTLMISRTPEVTCVVIDVREEDGEVKFNWYVDGVEVHNAKTKPREEQYNSTYRVVSVLTVLHQDWLNGKEYKCKVSNKALPAPIEKTISKAKGQPREPQVYTLPPSRDELTKNQVSLTCLVKGFYPSDIAVEWESNGQPENNYKTTPPVLDSDGSFFLYSKLTVDKSRWQQGNVFSCSVMHEALHNHYTQKSLSLSP
light: not shown
B2: IL6R-P649/IL6R-L (antibody, human IgG1, kappa)
heavy: B1 heavy with K239D, D267V, R269A, Y298D, A332R, P398M
light: not shown
B3: IL6R-P648/IL6R-L (antibody, human IgG1, kappa)
heavy: B1 heavy with K239D, D267S, R269A, Y298D, A332R, P398M
light: not shown
B4: IL6R-P646/IL6R-L (antibody, human IgG1, kappa)
heavy: B1 heavy with K239D, D267N, R269A, Y298D, A332R, P398M
light: not shown
B5: IL6R-P700/IL6R-L (antibody, human IgG1, kappa)
heavy: B1 heavy with L236A, K239G
light: not shown
B6: IL6R-P651/IL6R-L (antibody, human IgG1, kappa)
heavy: B1 heavy with K239D, Y298D, A332R, P398M
light: not shown
B7: IL6R-P696/IL6R-L (antibody, human IgG1, kappa)
heavy: B1 heavy with K239R
light: not shown
B8: IL6R-P645/IL6R-L (antibody, human IgG1, kappa)
heavy: B1 heavy with K239D, D267K, R269A, Y298D, A332R, P398M
light: not shown
B9: IL6R-P643/IL6R-L (antibody, human IgG1, kappa)
heavy: B1 heavy with K239R, R269A, Y298D, A332R, P398M
light: not shown
B10: IL6R-P664/IL6R-L (antibody, human IgG1, kappa, N297A)
heavy: B1 heavy with K239G, R269A, N299A
light: not shown
B11: IL6R-P650/IL6R-L (antibody, human IgG1, kappa)
heavy: B1 heavy with K239D, R269K, Y298D, A332R, P398M
light: not shown
B12: IL6R-P647/IL6R-L (antibody, human IgG1, kappa)
heavy: B1 heavy with K239D, D267R, R269A, Y298D, A332R, P398M
light: not shown
B13: IL6R-P701/IL6R-L (antibody, human IgG1, kappa)
heavy: B1 heavy with L236N, K239G
light: not shown
B14: IL6R-P644/IL6R-L (antibody, human IgG1, kappa)
heavy: B1 heavy with R269A, Y298D, A332R, P398M
light: not shown
B15: IL6R-BP262/IL6R-L (antibody, human IgG1, kappa, name in EU numbering)
heavy: B1 heavy with D235E, K239D, I266V, R269S, K441E
light: not shown
notes: human IgG1
B16: IL6R-BP559/IL6R-L (antibody, human IgG1, kappa, name in EU numbering)
heavy: B1 heavy with D235E, K239G, R269A, E274D, Y298D, K441E
light: not shown
notes: human IgG1
B17: IL6R-BP484/IL6R-L (antibody, human IgG1, kappa, name in EU numbering)
heavy: B1 heavy with K239D, I266V, R269A, E271D, K441E
light: not shown
notes: human IgG1
B18: IL6R-BP492/IL6R-L (antibody, human IgG1, kappa, name in EU numbering)
heavy: B1 heavy with D235E, K239G, R269A, K441E
light: not shown
notes: human IgG1
B19: IL6R-BP494/IL6R-L (antibody, human IgG1, kappa, name in EU numbering)
heavy: B1 heavy with D235E, K239D, I266V, R269A, Y298D, A332R, K441E
light: not shown
notes: human IgG1
B20: IL6R-BP504/IL6R-L (antibody, human IgG1, kappa, name in EU numbering)
heavy: B1 heavy with K239D, R269A, E274P, K441E
light: not shown
notes: human IgG1
B21: IL6R-BP562/IL6R-L (antibody, human IgG1, kappa, name in EU numbering)
heavy: B1 heavy with D235E, K239D, I266V, R269S, E270D, E274D, Y298D, A332R, K441E
light: not shown
notes: human IgG1
B22: IL6R-BP564/IL6R-L (antibody, human IgG1, kappa, name in EU numbering)
heavy: B1 heavy with D235E, K239D, I266V, R269S, E274D, Y298D, A332R, K441E
light: not shown
notes: human IgG1
B23: IL6R-BP549/IL6R-L (antibody, human IgG1, kappa, name in EU numbering)
heavy: B1 heavy with D235E, K239D, I266V, R269G, A332R, K441E
light: not shown
notes: human IgG1
B24: IL6R-BP500/IL6R-L (antibody, human IgG1, kappa, name in EU numbering)
heavy: B1 heavy with D235E, K239D, R269A, Y298D, K441E
light: not shown
notes: human IgG1
B25: IL6R-BP483/IL6R-L (antibody, human IgG1, kappa, name in EU numbering)
heavy: B1 heavy with K239D, I266V, V268L, R269A, K441E
light: not shown
notes: human IgG1
B26: IL6R-BP508/IL6R-L (antibody, human IgG1, kappa, name in EU numbering)
heavy: B1 heavy with K239D, R269A, E274P, Y298D, K441E
light: not shown
notes: human IgG1
B27: IL6R-BP505/IL6R-L (antibody, human IgG1, kappa, name in EU numbering)
heavy: B1 heavy with K239D, R269A, E274D, K441E
light: not shown
notes: human IgG1
B28: IL6R-BP509/IL6R-L (antibody, human IgG1, kappa, name in EU numbering)
heavy: B1 heavy with K239D, R269A, E274D, Y298D, K441E
light: not shown
notes: human IgG1
B29: IL6R-BP481/IL6R-L (antibody, human IgG1, kappa, name in EU numbering)
heavy: B1 heavy with K239D, R269A, K441E
light: not shown
notes: human IgG1
B30: IL6R-BP560/IL6R-L (antibody, human IgG1, kappa, name in EU numbering)
heavy: B1 heavy with D235E, K239G, I266V, R269G, Y298D, A332R, K441E
light: not shown
notes: human IgG1
B31: IL6R-BP269/IL6R-L (antibody, human IgG1, kappa, name in EU numbering)
heavy: B1 heavy with D235E, K239D, I266V, R269S, Y298D, K441E
light: not shown
notes: human IgG1
B32: IL6R-BP479/IL6R-L (antibody, human IgG1, kappa, name in EU numbering)
heavy: B1 heavy with K239D, V268L, R269A, K441E
light: not shown
notes: human IgG1

molecular target: T1, FcgRIIb; assay: SPR, amount bound per captured antibody

Relative FcgRIIb-binding Activity	Binder
28.7 IL6R-G1d/IL6R-L=100	B1
6.9 IL6R-G1d/IL6R-L=100	B2
152 IL6R-G1d/IL6R-L=100	B3
175 IL6R-G1d/IL6R-L=100	B4
38.1 IL6R-G1d/IL6R-L=100	B5
168 IL6R-G1d/IL6R-L=100	B6
73.7 IL6R-G1d/IL6R-L=100	B7
13.7 IL6R-G1d/IL6R-L=100	B8
178 IL6R-G1d/IL6R-L=100	B9
33.9 IL6R-G1d/IL6R-L=100	B10
155 IL6R-G1d/IL6R-L=100	B11
15.2 IL6R-G1d/IL6R-L=100	B12
47.6 IL6R-G1d/IL6R-L=100	B13
171 IL6R-G1d/IL6R-L=100	B14

molecular target: T2, FcgRIIaR; assay: SPR, amount bound per captured antibody

Relative FcgRIIaR-binding Activity	Binder
3.6 IL6R-G1d/IL6R-L=100	B1
2.9 IL6R-G1d/IL6R-L=100	B2
40.3 IL6R-G1d/IL6R-L=100	B3
72.5 IL6R-G1d/IL6R-L=100	B4
5.8 IL6R-G1d/IL6R-L=100	B5
75.7 IL6R-G1d/IL6R-L=100	B6
6.1 IL6R-G1d/IL6R-L=100	B7
5.2 IL6R-G1d/IL6R-L=100	B8
58.7 IL6R-G1d/IL6R-L=100	B9
10.8 IL6R-G1d/IL6R-L=100	B10
41.6 IL6R-G1d/IL6R-L=100	B11
5.6 IL6R-G1d/IL6R-L=100	B12
7 IL6R-G1d/IL6R-L=100	B13
34 IL6R-G1d/IL6R-L=100	B14

molecular target: T3, FcγRIIb extracellular domain with …; assay: SPR; KD of IL6R-B3/IL6R-L divided by KD of variant

Relative FcgRIIb-binding Activity	Binder
25.8	B15
110	B16
67.6	B17
131	B18
470	B19
127	B20
131	B21
140	B22
196	B23
128	B24
39.6	B25
149	B26
144	B27
174	B28
159	B29
16.8	B30
27.3	B31
55.3	B32

molecular target: T4, FcγRIIa R type extracellular domain …; assay: SPR; KD of IL6R-B3/IL6R-L divided by KD of variant

Relative FcgRIIaR-binding Activity	Binder
0.5	B15
0.7	B16
1.4	B17
1.2	B18
4.3	B19
2.4	B20
1.6	B21
1.9	B22
1.9	B23
1.5	B24
0.8	B25
2	B26
2.5	B27
2.1	B28
2.7	B29
0.3	B30
0.5	B31
1.2	B32

molecular target: T5, FcγRIa extracellular domain with C-terminal His tag (human, UniProt P12314 16-292); assay: SPR, antibody captured, FcgR analyte
T5 construct: also called FcgRIa; CD64; not shown: His tag at the C terminus
T5 sequence (P12314 16-292): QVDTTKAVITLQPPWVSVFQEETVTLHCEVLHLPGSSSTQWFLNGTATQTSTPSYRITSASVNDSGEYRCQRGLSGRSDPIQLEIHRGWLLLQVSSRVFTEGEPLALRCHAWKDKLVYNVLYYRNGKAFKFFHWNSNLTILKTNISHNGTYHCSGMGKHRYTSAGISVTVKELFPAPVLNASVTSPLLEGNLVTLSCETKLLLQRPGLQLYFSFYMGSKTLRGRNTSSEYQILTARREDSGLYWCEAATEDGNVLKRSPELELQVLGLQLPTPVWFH

Kd	Binder
10 nM	B15
1.1 nM	B16
0.82 nM	B17
0.79 nM	B18
3.9 nM	B19
1.4 nM	B20
25 nM	B21
31 nM	B22
18 nM	B23
2.3 nM	B24
1.3 nM	B25
1.4 nM	B26
1.1 nM	B27
1.1 nM	B28
1 nM	B29
5.6 nM	B30
14 nM	B31
5.3 nM	B32

molecular target: T3, FcγRIIb extracellular domain with …; assay: SPR, antibody captured, FcgR analyte

Kd	Binder
120 nM	B15
28 nM	B16
46 nM	B17
24 nM	B18
6.6 nM	B19
24 nM	B20
24 nM	B21
22 nM	B22
16 nM	B23
24 nM	B24
78 nM	B25
21 nM	B26
21 nM	B27
18 nM	B28
19 nM	B29
180 nM	B30
110 nM	B31
56 nM	B32

molecular target: T4, FcγRIIa R type extracellular domain …; assay: SPR, antibody captured, FcgR analyte

Kd	Binder
2000 nM	B15
1600 nM	B16
780 nM	B17
920 nM	B18
250 nM	B19
450 nM	B20
680 nM	B21
580 nM	B22
570 nM	B23
720 nM	B24
1300 nM	B25
540 nM	B26
430 nM	B27
520 nM	B28
400 nM	B29
4200 nM	B30
2200 nM	B31
900 nM	B32
